This note sets out measurements from patent US20100233154A1, “TARGETED BINDING AGENTS DIRECTED TO HEPARANASE AND USES THEREOF 463” (MedImmune Limited, priority 2008, published 2010).

The assay addresses cynomolgus heparanase (cynomolgus). Kind of assay: cross species capture ELISA, heparanase captured by rabbit anti-heparanase antibody, exhaustive supernatant 1:5, anti-human IgG Fc detection.

cynomolgus heparanase (cynomolgus), sequence (chain, as listed by the source): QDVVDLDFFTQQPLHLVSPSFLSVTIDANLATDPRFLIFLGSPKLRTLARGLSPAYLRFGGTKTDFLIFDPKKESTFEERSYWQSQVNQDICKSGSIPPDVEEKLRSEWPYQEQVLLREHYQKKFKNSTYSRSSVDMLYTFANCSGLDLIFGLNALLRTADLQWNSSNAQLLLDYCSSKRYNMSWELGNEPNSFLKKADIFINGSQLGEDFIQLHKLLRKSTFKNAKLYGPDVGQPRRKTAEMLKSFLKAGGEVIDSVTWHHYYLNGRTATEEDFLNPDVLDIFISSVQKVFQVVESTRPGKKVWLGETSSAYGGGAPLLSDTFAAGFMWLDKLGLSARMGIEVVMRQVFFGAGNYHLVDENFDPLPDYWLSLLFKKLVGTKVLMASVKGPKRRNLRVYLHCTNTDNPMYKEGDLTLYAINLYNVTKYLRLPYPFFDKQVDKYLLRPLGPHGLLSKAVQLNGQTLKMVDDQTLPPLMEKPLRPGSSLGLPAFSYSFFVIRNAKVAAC

B1: monoclonal antibody 15A1.2 (antibody, V domains shown)
VH: QVQLVQSGAEVKKPGASVKVSCKVSGYTLTELSMHWVRQAPGKGLEWMGGFDPEDGETIFAQKFQGRVTMTEDTSTDTAYMELSSLRSEDTAVYYCATGLRFLEWFLWGWDVWGQGTTVTVSS
VL: DIQMTQSPSSVSASVGDRVTITCRASQGISNWLAWYQQTPGKAPQLLIYGASSLQSGVPSRFSGSGSGTDFTLTISSLQPEDFATYYCQQADSFPPTFGQGTKVEIK
Molecule B1 displayed an OD, binding to heparanase (Cyno) of 0.11 OD units.
